Measured values published in patent US20210214432A1 (Y BIOLOGICS, published 2021).
Numbering of substitutions follows the chain as printed.

B1: human anti-DLK1 monoclonal antibody 18A5 (antibody, V domains shown)
VH: QVQLVQSGGAVVQPGHSLRLSCEASGFKFKDYGMHWVRQAPGKGLEWLAVISHDGRNKNYADSVKGRLTISRDNSKNTLSFQMNSLRAEDTAVYYCVRDWSYAFDIWGQGTLVTVSS
VL: DIQMTQSPSFLSASVGDRVNITCRASQDISRRLAWYQQKPGKAPKLLIYGAASLQSAVASRFSGSGSGTEFTLTISSLQPEDFANYYCQQIYTTPLTFGGGTKVEIK
notes: Converted from scFv to IgG; also called DLK1-18A5
B2: human anti-DLK1 monoclonal antibody variant 18A5_LS_1A10 (antibody, V domains shown)
VH: B1 VH
VL: DIQMTQSPSSLSASLGDRVTITCRASQGISSALAWYQQKPGKAPKLLIYAASSLQSGVPSRFSGSGSGTDFTLTINSLQPEDFATYYCQQSYTTPLTFGGGTKVEIK
B3: human anti-DLK1 monoclonal antibody variant 18A5_AM_1A12 (antibody, V domains shown)
VH: B1 VH with A10G, H16G, E23A
VL: DIQMTQSPSFLSASVGDRVTITCRASHDISSSLAWYQQKSGKAPKLLIYSASNLKSGVPSRFSGSGSGTDFSLTISSLQPEDFATYYCQQSYTTVLTFGGGTKLEIK
B4: human anti-DLK1 monoclonal antibody 17B11 (antibody, V domains shown)
VH: QVQLVESGGTLVQPGGSLRLSCAASGFTFSSHAMSWVRQTPGKGLEWVSSITKSGSGTYSADSVKGRFTISRDNSKNTLYLQMNSLRAEDTAVYYCTREGLGYYYGMDVWGQGTTVTVSS
VL: QLVLTQPPSVSGAPGQRVIISCTGSSSNIGAGYDVHWYQQLPGTAPRLLIYGSTNRPSGVPDRFSGSKSGTSASLAITGLQAEDEADYYCQSYDNSLSAHYVFGTGTKVTVL
notes: Converted from scFv to IgG (pNATVH/pNATVL, HEK293E)
B5: human anti-DLK1 monoclonal antibody 27F7 (antibody, V domains shown)
VH: QMQLVESGGGLVKPGGSLTLSCDATGFNFGSYYMNWVRQAPGKGLEWLAHISSTGRTIYYADSVKGRFTISRDNAKSSLDLQMNSLRAEDTAVYYCARDQGYPFGMDVWGHGTTVTVSS
VL: QLVLTQPSSVSGAPGQRVTISCTGSSSNIGAGYDVDWYQQLPGTAPKLLIYGNTNRPSGVPDRFSGSKSGTSASLAITGLQAEDDSDYYCQSYDSSLSAWVFGGGTKLTVL
notes: Converted from scFv to IgG
B6: human anti-DLK1 monoclonal antibody 35E2 (antibody, V domains shown)
VH: QVQLVESGGGVVQPGRSLRLSCAASGFTFSSYAMHWVRQAPGKGLEWVAVIYSGGSTYYADSVKGRFTISRDNSKNTLYLQMNSLRAEDTAVYYCAREGSYDVMTYTRIGGYFDYWGQGALVTVSS
VL: DIQMTQSPSSVSASVGDRVTITCRASQGISDWVAWYQQKPGKAPKLLIYAASSLQSGVPSRFSGSGSGTEFSLTISNLQPEDFATYYCQQANSFPLTFGPGTKVEIK
notes: Converted from scFv to IgG
B7: human anti-DLK1 monoclonal antibody 20D3 (antibody, V domains shown)
VH: QMQLVQSGGGLVQPGRSLRLSCAASGFTFDDYAMHWVRQAPGKGLEWVSGISWNSGSIGYADSVKGRFTISRDNAKNSLYLQMNSLRAEDTAVYYCTKGPGLATGKVYFNSWGQGTQVTVSS
VL: DIQMTQSPSSVSASVGDRVTITCRASQRISSWLAWYQQKPGRAPKLLIHSASTLHNGVPSRFSGSASGTDFTLTISSLQPEDFAIYYCQQGHSFPYTFGQGTKLDIK
notes: Converted from scFv to IgG

Assays:
[1] = target: T1, human DLK1 present on the cell surface (DLK1-overexpressing MIA PaCa-2 cells); SK-N-F1 cells endogenously … (human, UniProt P80370 24-383); experiment: cell-based or functional assay
T1 sequence (looked up): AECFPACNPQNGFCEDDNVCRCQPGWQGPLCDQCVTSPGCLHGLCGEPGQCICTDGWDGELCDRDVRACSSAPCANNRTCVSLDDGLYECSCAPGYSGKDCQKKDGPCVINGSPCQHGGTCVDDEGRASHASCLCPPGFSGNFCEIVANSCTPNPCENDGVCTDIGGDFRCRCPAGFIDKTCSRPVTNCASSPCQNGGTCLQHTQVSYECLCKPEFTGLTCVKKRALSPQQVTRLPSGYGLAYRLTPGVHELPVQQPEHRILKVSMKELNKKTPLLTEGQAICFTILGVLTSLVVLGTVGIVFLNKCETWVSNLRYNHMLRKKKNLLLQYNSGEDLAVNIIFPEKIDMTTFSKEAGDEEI

[2] = target: T1, human DLK1 present on the cell surface …; experiment: FACS, DLK1-overexpressing MIA PaCa-2 cells, antibody titrated 1/3 from 10 µg/ml
[3] = target: T2, DLK1-hFc fusion protein (extracellular region of human DLK1 fused with human Fc) (human, UniProt P80370 24-303); experiment: ELISA, coated DLK1 antigen, IgG titrated 100 nM to 0.046 nM, GraphPad Prism fit
T2 construct: The ELISA text says 'DLK1 protein'/'antigen DLK1' coated at 100 ng/well; also called hDLK1; DLK1 antigen
T2 sequence: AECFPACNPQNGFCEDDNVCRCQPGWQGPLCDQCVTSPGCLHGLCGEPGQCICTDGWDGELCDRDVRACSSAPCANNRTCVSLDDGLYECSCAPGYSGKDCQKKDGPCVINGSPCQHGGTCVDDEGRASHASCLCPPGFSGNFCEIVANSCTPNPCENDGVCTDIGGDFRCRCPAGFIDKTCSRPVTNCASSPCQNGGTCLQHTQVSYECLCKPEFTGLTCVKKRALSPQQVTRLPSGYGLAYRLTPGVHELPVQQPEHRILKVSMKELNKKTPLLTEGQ

Binder | EC50 of cytotoxicity of 18A5-Fab ZAP in DLK1-overexpressing MIA PaCa-2 cells [1] [pM] | EC50 [2] [µg/mL] | Kd [3] [pM] | EC50 of cytotoxicity of 18A5_LS_1A10-Fab ZAP in DLK1-overexpressing MIA PaCa-2 cells [1] [pM] | EC50 of cytotoxicity of 18A5_AM_1A12-Fab ZAP in DLK1-overexpressing MIA PaCa-2 cells [1] [pM]
B1 | 0.002 | 0.131 | 520 |  | 
B2 |  | 0.12 | 47 | 0.0011 | 
B3 |  | 0.0903 | 13 |  | 0.0026
B4 |  |  | 7190 |  | 
B5 |  |  | 220 |  | 
B6 |  |  | 330 |  | 
B7 |  |  | 54000 |  | 
